The source of these data is paper PMC4486061 (Journal of Structural Biology, 2010).

Values joined by “and” are separate entries in the source; they are usually repeats but may differ in a detail not shown here. Identical values can stand only once.

This series deals with the molecule itself. Put plainly: PFO-PAGE.

B1: SARS-CoV M protein endodomain, residues 107-221 (M_(107-221)) (domain or fragment)
chain: SMWSFNPETNILLNVPLRGTIVTRPLMESELVIGAVIIRGHLRMAGHSLGRCDIKDLPKEITVATSRTLSYYKLGASQRVGTDSGFAAYNRYRIGNYKLNTDHAGSNDNIALLVQ
On to B1, for which the “stoichiometry N” value is 2 and 4 and 6.
